What was measured:
[1] = biological target: T1, F4, TNFα-derived peptide with a myristoylated lysine and fluorescein-labelled cysteine in the +2 position (UniProt P01375, myristoyl residue on the lysine side chain; 5-acetamidofluorescein coupled to a cysteine residue at position +2); assay: FP; 3 uM BSA, no NAD+
[2] = biological target: T1, F4, TNFα-derived peptide with a …; assay: FP; 0.3 uM BSA, no NAD+
[3] = biological target: T1, F4, TNFα-derived peptide with a …; assay: FP; 0 uM BSA, no NAD+

B1: SIRT2 (enzyme)
chain: MAEPDPSHPLETQAGKVQEAQDSDSDSEGGAAGGEADMDFLRNLFSQTLSLGSQKERLLDELTLEGVARYMQSERCRRVICLVGAGISTSAGIPDFRSPSTGLYDNLEKYHLPYPEAIFEISYFKKHPEPFFALAKELYPGQFKPTICHYFMRLLKDKGLLLRCYTQNIDTLERIAGLEQEDLVEAHGTFYTSHCVSASCRHEYPLSWMKEKIFSEVTPKCEDCQSLVKPDIVFFGESLPARFFSCMQSDFLKVDLLLVMGTSLQVQPFASLISKAPLSTPRLLINKEKAGQSDPFLGMIMGLGGGMDFDSKKAYRDVAWLGECDQGCLALAELLGWKKELEDLVRREHASIDAQSGAGVPNPSTSASPKKSPPPAKDEARTTEREKPQ
Kd [1]: 7 nM | Kd [2]: 9.4 nM | Kd [3]: 12.3 nM

Source: article PMC10138348 (2023)
